These results are taken from IntAct's records for PubMed 12074588.

The target in the experiment is nck1_human NCK1 (UniProt P16333).

Consider “BDNF/NT-3 growth factors receptor (Rattus norvegicus (Rat)), Q63604 K571F”, for which the “effect of a mutation on the interaction” value is on record as “disrupting interaction strength”.
With “BDNF/NT-3 growth factors receptor (Rattus norvegicus (Rat)), Q63604 Y515F” the entry was “with no effect”.
Then “BDNF/NT-3 growth factors receptor (Rattus norvegicus (Rat)), Q63604 Y701F”, with “with no effect”; and “BDNF/NT-3 growth factors receptor (Rattus norvegicus (Rat)), Q63604 Y705F”, with “disrupting interaction strength”.
As to “BDNF/NT-3 growth factors receptor (Rattus norvegicus (Rat)), Q63604 Y706F”, the “effect of a mutation on the interaction” value is “disrupting interaction strength”.
Then “BDNF/NT-3 growth factors receptor (Rattus norvegicus (Rat)), Q63604 Y726F”, with “with no effect”; and “BDNF/NT-3 growth factors receptor (Rattus norvegicus (Rat)), Q63604 Y782F”, with “disrupting interaction strength”; and “BDNF/NT-3 growth factors receptor (Rattus norvegicus (Rat)), Q63604 Y816F”, with “with no effect”.
